Results published in publication PMC10786891, “Massively parallel profiling of RNA-targeting CRISPR-Cas13d”.

T1: EsCas13d, nuclease-dead (Eubacterium siraeum, UniProt B0MS50, R295A;H300A;R849A;H854A)
T1 sequence: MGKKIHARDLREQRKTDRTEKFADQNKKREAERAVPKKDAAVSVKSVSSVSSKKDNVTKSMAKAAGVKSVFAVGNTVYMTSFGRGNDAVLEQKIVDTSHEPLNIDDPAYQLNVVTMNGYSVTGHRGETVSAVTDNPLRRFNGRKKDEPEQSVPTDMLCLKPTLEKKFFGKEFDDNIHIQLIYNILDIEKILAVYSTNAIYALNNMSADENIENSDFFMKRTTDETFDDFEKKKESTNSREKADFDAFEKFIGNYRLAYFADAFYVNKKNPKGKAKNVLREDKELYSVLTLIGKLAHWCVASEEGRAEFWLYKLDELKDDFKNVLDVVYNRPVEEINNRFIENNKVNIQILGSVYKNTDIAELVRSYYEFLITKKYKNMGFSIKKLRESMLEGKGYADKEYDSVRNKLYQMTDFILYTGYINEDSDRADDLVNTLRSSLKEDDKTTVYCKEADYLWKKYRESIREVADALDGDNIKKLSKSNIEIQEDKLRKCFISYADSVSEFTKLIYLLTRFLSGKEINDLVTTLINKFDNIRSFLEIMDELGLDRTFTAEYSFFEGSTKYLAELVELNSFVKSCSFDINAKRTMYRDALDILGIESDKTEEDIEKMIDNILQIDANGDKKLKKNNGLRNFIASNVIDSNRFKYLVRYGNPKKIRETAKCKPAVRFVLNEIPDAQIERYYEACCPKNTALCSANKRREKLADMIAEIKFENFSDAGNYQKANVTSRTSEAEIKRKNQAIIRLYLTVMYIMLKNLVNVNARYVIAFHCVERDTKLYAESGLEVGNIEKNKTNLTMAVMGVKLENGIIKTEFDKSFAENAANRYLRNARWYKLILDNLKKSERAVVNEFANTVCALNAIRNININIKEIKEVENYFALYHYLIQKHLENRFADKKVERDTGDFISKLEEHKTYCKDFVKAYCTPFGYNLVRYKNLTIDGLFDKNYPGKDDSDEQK


Biological target: T1, EsCas13d, nuclease-dead
Test: crRNA (strand 1, pre-loaded); Mg2+; 40 mM Tris-HCl pH 7.5, 150 mM NaCl, 6 mM MgCl2, 1 mM DTT, 0.1% Tween-20, 0.2 mg/ml BSA; 25 C; 10 min per concentration, then washed
Settings: tags: His6-TwinStrep-SUMO cleaved; N-terminal SNAP kept (SNAP-Surface 488); label: 3' end held by stalled T7 RNA polymerase

Binder | Kd [µM]
target 3 del2,del4 (mixed) RNA 1: CACCCGUGCAAAAUUGCAGGGGUCUAAAACGACCUGAAUAUUUCAGAUCAAA RNA 2: GGGAAUGGAUCCACAUCUACGAAUUCGUUUUUGAUCUGAAAUAUUCAGCUGCAGAUCGGAAGAGCACACGU | 0.0369 ± 0.0052
target 3 insU 3' of 6,insC 3' of 5 (mixed) RNA 1: CACCCGUGCAAAAUUGCAGGGGUCUAAAACGACCUGAAUAUUUCAGAUCAAA RNA 2: GGGAAUGGAUCCACAUCUACGAAUUCGUUUUUGAUCUGAAAUAUUCUACGGUCUGCAGAUCGGAAGAGCACACGU | 0.0154 ± 0.00145
target 3 insA 3' of 7,insA 3' of 7 (mixed) RNA 1: CACCCGUGCAAAAUUGCAGGGGUCUAAAACGACCUGAAUAUUUCAGAUCAAA RNA 2: GGGAAUGGAUCCACAUCUACGAAUUCGUUUUUGAUCUGAAAUAUUAACAGGUCUGCAGAUCGGAAGAGCACACGU | 0.038 ± 0.0055
target 3 insA 3' of 8,insC 3' of 3 (mixed) RNA 1: CACCCGUGCAAAAUUGCAGGGGUCUAAAACGACCUGAAUAUUUCAGAUCAAA RNA 2: GGGAAUGGAUCCACAUCUACGAAUUCGUUUUUGAUCUGAAAUAUAUCAGGCUCUGCAGAUCGGAAGAGCACACGU | 0.043 ± 0.007
target 3 insG 3' of 9,insA 3' of 3 (mixed) RNA 1: CACCCGUGCAAAAUUGCAGGGGUCUAAAACGACCUGAAUAUUUCAGAUCAAA RNA 2: GGGAAUGGAUCCACAUCUACGAAUUCGUUUUUGAUCUGAAAUAGUUCAGGAUCUGCAGAUCGGAAGAGCACACGU | 0.0555 ± 0.0125
target 3 G3C,U7G (mixed) RNA 1: CACCCGUGCAAAAUUGCAGGGGUCUAAAACGACCUGAAUAUUUCAGAUCAAA RNA 2: GGGAAUGGAUCCACAUCUACGAAUUCGUUUUUGAUCUGAAAUAUGCAGCUCUGCAGAUCGGAAGAGCACACGU | 0.06 ± 0.0075
target 3 insA 3' of 2,insG 3' of 2 (mixed) RNA 1: CACCCGUGCAAAAUUGCAGGGGUCUAAAACGACCUGAAUAUUUCAGAUCAAA RNA 2: GGGAAUGGAUCCACAUCUACGAAUUCGUUUUUGAUCUGAAAUAUUCAGGUAGCUGCAGAUCGGAAGAGCACACGU | 0.0209 ± 0.00215
target 3 G3C,A5G (mixed) RNA 1: CACCCGUGCAAAAUUGCAGGGGUCUAAAACGACCUGAAUAUUUCAGAUCAAA RNA 2: GGGAAUGGAUCCACAUCUACGAAUUCGUUUUUGAUCUGAAAUAUUCGGCUCUGCAGAUCGGAAGAGCACACGU | 0.0161 ± 0.0014
target 3 insG 3' of 7,insG 3' of 7 (mixed) RNA 1: CACCCGUGCAAAAUUGCAGGGGUCUAAAACGACCUGAAUAUUUCAGAUCAAA RNA 2: GGGAAUGGAUCCACAUCUACGAAUUCGUUUUUGAUCUGAAAUAUUGGCAGGUCUGCAGAUCGGAAGAGCACACGU | 0.0415 ± 0.0055
target 3 insA 3' of 22,insU 3' of 6 (mixed) RNA 1: CACCCGUGCAAAAUUGCAGGGGUCUAAAACGACCUGAAUAUUUCAGAUCAAA RNA 2: GGGAAUGGAUCCACAUCUACGAAUUCGUUUAUUGAUCUGAAAUAUUCUAGGUCUGCAGAUCGGAAGAGCACACGU | 0.0325 ± 0.0055
target 3 insC 3' of 7,insC 3' of 4 (mixed) RNA 1: CACCCGUGCAAAAUUGCAGGGGUCUAAAACGACCUGAAUAUUUCAGAUCAAA RNA 2: GGGAAUGGAUCCACAUCUACGAAUUCGUUUUUGAUCUGAAAUAUUCCAGCGUCUGCAGAUCGGAAGAGCACACGU | 0.0745 ± 0.015
target 3 insG 3' of 2,insG 3' of 1 (mixed) RNA 1: CACCCGUGCAAAAUUGCAGGGGUCUAAAACGACCUGAAUAUUUCAGAUCAAA RNA 2: GGGAAUGGAUCCACAUCUACGAAUUCGUUUUUGAUCUGAAAUAUUCAGGUGCGUGCAGAUCGGAAGAGCACACGU | 0.0256 ± 0.00425
target 3 C6A,U22A (mixed) RNA 1: CACCCGUGCAAAAUUGCAGGGGUCUAAAACGACCUGAAUAUUUCAGAUCAAA RNA 2: GGGAAUGGAUCCACAUCUACGAAUUCGUUAUUGAUCUGAAAUAUUAAGGUCUGCAGAUCGGAAGAGCACACGU | 0.0595 ± 0.0065
target 3 G4U,U22G (mixed) RNA 1: CACCCGUGCAAAAUUGCAGGGGUCUAAAACGACCUGAAUAUUUCAGAUCAAA RNA 2: GGGAAUGGAUCCACAUCUACGAAUUCGUUGUUGAUCUGAAAUAUUCAUGUCUGCAGAUCGGAAGAGCACACGU | 0.037 ± 0.006
target 3 G4A,U8A (mixed) RNA 1: CACCCGUGCAAAAUUGCAGGGGUCUAAAACGACCUGAAUAUUUCAGAUCAAA RNA 2: GGGAAUGGAUCCACAUCUACGAAUUCGUUUUUGAUCUGAAAUAAUCAAGUCUGCAGAUCGGAAGAGCACACGU | 0.0765 ± 0.0095
target 3 G3C,C6A (mixed) RNA 1: CACCCGUGCAAAAUUGCAGGGGUCUAAAACGACCUGAAUAUUUCAGAUCAAA RNA 2: GGGAAUGGAUCCACAUCUACGAAUUCGUUUUUGAUCUGAAAUAUUAAGCUCUGCAGAUCGGAAGAGCACACGU | 0.027 ± 0.002
target 3 insU 3' of 5,insC 3' of 5 (mixed) RNA 1: CACCCGUGCAAAAUUGCAGGGGUCUAAAACGACCUGAAUAUUUCAGAUCAAA RNA 2: GGGAAUGGAUCCACAUCUACGAAUUCGUUUUUGAUCUGAAAUAUUCAUCGGUCUGCAGAUCGGAAGAGCACACGU | 0.00659 ± 0.00054
target 3 del2,del22 (mixed) RNA 1: CACCCGUGCAAAAUUGCAGGGGUCUAAAACGACCUGAAUAUUUCAGAUCAAA RNA 2: GGGAAUGGAUCCACAUCUACGAAUUCGUUUUGAUCUGAAAUAUUCAGGCUGCAGAUCGGAAGAGCACACGU | 0.00525 ± 0.0007
target 3 C1G,G3U (mixed) RNA 1: CACCCGUGCAAAAUUGCAGGGGUCUAAAACGACCUGAAUAUUUCAGAUCAAA RNA 2: GGGAAUGGAUCCACAUCUACGAAUUCGUUUUUGAUCUGAAAUAUUCAGUUGUGCAGAUCGGAAGAGCACACGU | 0.0186 ± 0.00335
target 3 A18G,U21C (mixed) RNA 1: CACCCGUGCAAAAUUGCAGGGGUCUAAAACGACCUGAAUAUUUCAGAUCAAA RNA 2: GGGAAUGGAUCCACAUCUACGAAUUCGUUUCUGGUCUGAAAUAUUCAGGUCUGCAGAUCGGAAGAGCACACGU | 0.075 ± 0.026
target 3 insU 3' of 13,insC 3' of 3 (mixed) RNA 1: CACCCGUGCAAAAUUGCAGGGGUCUAAAACGACCUGAAUAUUUCAGAUCAAA RNA 2: GGGAAUGGAUCCACAUCUACGAAUUCGUUUUUGAUCUGAUAAUAUUCAGGCUCUGCAGAUCGGAAGAGCACACGU | 0.0865 ± 0.0195
target 3 insG 3' of 18,insU 3' of 1 (mixed) RNA 1: CACCCGUGCAAAAUUGCAGGGGUCUAAAACGACCUGAAUAUUUCAGAUCAAA RNA 2: GGGAAUGGAUCCACAUCUACGAAUUCGUUUUUGAGUCUGAAAUAUUCAGGUCUUGCAGAUCGGAAGAGCACACGU | 0.0825 ± 0.017
target 3 A5G,C6G (mixed) RNA 1: CACCCGUGCAAAAUUGCAGGGGUCUAAAACGACCUGAAUAUUUCAGAUCAAA RNA 2: GGGAAUGGAUCCACAUCUACGAAUUCGUUUUUGAUCUGAAAUAUUGGGGUCUGCAGAUCGGAAGAGCACACGU | 0.0204 ± 0.00175
target 3 insU 3' of 14,insG 3' of 2 (mixed) RNA 1: CACCCGUGCAAAAUUGCAGGGGUCUAAAACGACCUGAAUAUUUCAGAUCAAA RNA 2: GGGAAUGGAUCCACAUCUACGAAUUCGUUUUUGAUCUGUAAAUAUUCAGGUGCUGCAGAUCGGAAGAGCACACGU | 0.0335 ± 0.011
target 3 insC 3' of 22,insA 3' of 6 (mixed) RNA 1: CACCCGUGCAAAAUUGCAGGGGUCUAAAACGACCUGAAUAUUUCAGAUCAAA RNA 2: GGGAAUGGAUCCACAUCUACGAAUUCGUUUCUUGAUCUGAAAUAUUCAAGGUCUGCAGAUCGGAAGAGCACACGU | 0.0149 ± 0.00195
target 1 insC 3' of 20,insU 3' of 9 (mixed) RNA 1: CACCCGUGCAAAAAUGCAGGGGUCUAAAACUGAGCGGAUAACCUCUCUAUGG RNA 2: GGGAAUGGAUCCACAUCUACGAAUUCGUACCACUAGAGAGGUUAUUCCGCUCACCGAGAUCGGAAGAGCACACGU | 0.008 ± 0.0009
target 1 A16C,C21U (mixed) RNA 1: CACCCGUGCAAAAAUGCAGGGGUCUAAAACUGAGCGGAUAACCUCUCUAUGG RNA 2: GGGAAUGGAUCCACAUCUACGAAUUCGUACUAUAGCGAGGUUAUCCGCUCACCGAGAUCGGAAGAGCACACGU | 0.0085 ± 0.0006
target 1 insA 3' of 17,insG 3' of 4 (mixed) RNA 1: CACCCGUGCAAAAAUGCAGGGGUCUAAAACUGAGCGGAUAACCUCUCUAUGG RNA 2: GGGAAUGGAUCCACAUCUACGAAUUCGUACCAUAGAAGAGGUUAUCCGCGUCACCGAGAUCGGAAGAGCACACGU | 0.0102 ± 0.0004
